Source: patent US10357572B2, “Prodrugs activated by caspase” (priority 2014, dated 2019)
Starred links: 1 amine or outer side, 2 acyl side, 3 side chain; linkers in the order of their positions; H or OH if unused. Non-standard residues stand in square brackets, D forms with d. Residues, ends and D or L forms follow the SMILES beside them. *: point of attachment. Doxorubicin(3'-N) = COc1cccc2c1C(=O)c1c(O)c3c(c(O)c1C2=O)C[C@@](O)(C(=O)CO)C[C@@H]3O[C@H]1C[C@H](N*)[C@H](O)[C@H](C)O1; Hexanoyl(6-maleimido) = O=C1C=CC(=O)N1CCCCCC(=O)*; PABC = O=C(OCc1ccc(N[*:1])cc1)[*:2]

Legend:
[1] = Plasma concentration-time curve of doxorubicin content after intravenous administration to rats; type: in vivo; settings: Sprague-Dawley rats, molar equivalent to 1 mg/kg of doxorubicin
Experimental: The pharmacokinetic profile of the maleimide-KGDEVD-PABC-doxorubicin (SEQ ID NO: 10) and AcKGDEVD-PABC-doxorubicin (SEQ ID NO: 32) conjugates was determined after intravenous administration to Sprague-Dawley rats at a dose of molar equivalent to 1 mg/kg of doxorubicin (FIG. 25). Blood samples were collected at 5, 15, 30, 60, 90 minutes and then 2, 4, 8, 12, 24, 48, 72, 96, 144 hours post-injection (500 μl each). The collected blood samples were stabilized immediately with sodium citrate and centrifuged for 15 min at 2000×g in a refrigerated centrifuge to separated plasma. The plasma samples (200 μl) were transferred to a 96-well black microplate and the intrinsic fluorescence of doxorubicin was read at Ex 485 nm/Em 590 nm. A standard was prepared in fresh plasma and fluorescence was read as described above.

[2] = Plasma concentration-time curves of doxorubicin content after intravenous administration to monkeys; type: in vivo; settings: Cynomolgus monkeys, molar equivalent to 1 mg/kg of doxorubicin
Experimental: The pharmacokinetic profiles of the maleimide-KGDEVD-PABC-doxorubicin (SEQ ID NO: 10) and AcKGDEVD-PABC-doxorubicin (SEQ ID NO: 32) conjugates were determined after intravenous administration to Cynomolgus monkeys at a dose of molar equivalent to 1 mg/kg of doxorubicin (FIG. 28). Blood samples were collected at 15, 30, 45, 60, 90 minutes and then 2, 3, 4, 6, 8, 12, 24, 48, 72, 96, 120, 144, 168 hours post-injection (500 μl each). The collected blood samples were stabilized immediately with sodium citrate and centrifuged for 15 min at 2000×g in a refrigerated centrifuge to separate the plasma. The plasma samples (200 al) were transferred to a 96-well black microplate and the intrinsic fluorescence of doxorubicin was read at Ex 485 nm/Em 590 nm. A standard was prepared in fresh plasma and the fluorescence was read as described above.

[3] = biological target: T1, recombinant human caspase-3 (Homo sapiens, UniProt P42574); assay: HPLC monitored cleavage study by recombinant human caspase-3; type: biochemical; settings: incubated with purified caspase-3, HPLC
T1 sequence (P42574 29-175 limits assumed): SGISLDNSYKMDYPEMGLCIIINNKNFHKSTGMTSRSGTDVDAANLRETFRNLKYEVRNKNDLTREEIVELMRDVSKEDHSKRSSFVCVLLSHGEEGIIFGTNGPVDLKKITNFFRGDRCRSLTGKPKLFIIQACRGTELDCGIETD
T1 sequence (P42574 176-277 limits assumed): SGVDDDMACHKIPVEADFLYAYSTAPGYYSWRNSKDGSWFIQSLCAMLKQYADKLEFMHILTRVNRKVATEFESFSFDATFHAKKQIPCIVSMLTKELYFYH
Excerpt: Example 21—HPLC Monitored Cleavage Studies of Human Serum Albumin-Bound Maleimide-KGDEVD-PABC-Doxorubicin (SEQ ID NO: 10) (HSA-KGDEVD-PABC-Doxorubicin (SEQ ID NO: 31)) by Recombinant Human Caspase-3

Compound: COc1cccc2c1C(=O)c1c(O)c3c(c(O)c1C2=O)C[C@@](O)(C(=O)CO)C[C@@H]3O[C@H]1C[C@H](NC(=O)OCc2ccc(NC(=O)[C@H](CC(=O)O)NC(=O)[C@@H](NC(=O)[C@H](CCC(=O)O)NC(=O)[C@H](CC(=O)O)NC(=O)CNC(=O)[C@H](CCCCN)NC(C)=O)C(C)C)cc2)[C@H](O)[C@H](C)O1 [AcKGDEVD-PABC-doxorubicin, Ac-Lys-Gly-Asp-Glu-Val-Asp-PABC-doxorubicin] (Ac-KGDEVD[PABC]-{Doxorubicin(3'-N)})
- time until plasma concentration decreased below the detection limit (5 ng/ml) [1]: ≤ 4 h
- half-life ([1]; rat, in vivo, plasma fluorescence, read-out: terminal half-life): 30 min
- time until plasma concentration decreased below the detection limit (5 ng/ml) [2]: ≤ 6 h
- terminal half-life ([2]; plasma fluorescence): 60 min

Compound: COc1cccc2c1C(=O)c1c(O)c3c(c(O)c1C2=O)C[C@@](O)(C(=O)CO)C[C@@H]3O[C@H]1C[C@H](NC(=O)OCc2ccc(NC(=O)[C@H](CC(=O)O)NC(=O)[C@@H](NC(=O)[C@H](CCC(=O)O)NC(=O)[C@H](CC(=O)O)NC(=O)CNC(=O)[C@H](CCCCNC(=O)CCCCCN3C(=O)C=CC3=O)NC(C)=O)C(C)C)cc2)[C@H](O)[C@H](C)O1 [maleimide-KGDEVD-PABC-doxorubicin, Ac-Lys(EMC)-Gly-Asp-Glu-Val-Asp-PABC-doxorubicin] (Ac-K(Hexanoyl(6-maleimido))GDEVD[PABC]-{Doxorubicin(3'-N)})
- time the conjugate lasted in plasma after administration [1]: more than 6 days
- time the plasma concentration was detectable after administration [2]: more than 7 days

Compound: HSA-maleimide-KGDEVD-PABC-doxorubicin
- time until free doxorubicin was completely liberated from the conjugate [3]: ≤ 1 h
